Measured values as given in paper PMC8863788, “A multiparametric fluorescence assay for screening aptamer–protein interactions based on microbeads”.

Columns and labels:
Assay in all cases: fluorescent microbead binding (VideoScan)
Interferon gamma (IFNγ) = Interferon gamma (IFNγ) (UniProt P01579 24-161); conditions: protein: commercial; chain copies: 2
PfLDH = PfLDH (UniProt Q76NM3 1-316); conditions: protein: recombinant; chain copies: 4
Thrombin = Thrombin (UniProt P00734;P00734 328-363;364-622)

Chain of Interferon gamma (IFNγ) (P01579 24-161): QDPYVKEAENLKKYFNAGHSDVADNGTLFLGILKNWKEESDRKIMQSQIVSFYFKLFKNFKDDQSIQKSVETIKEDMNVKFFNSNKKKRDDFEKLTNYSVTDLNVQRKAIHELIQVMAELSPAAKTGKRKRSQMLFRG

Q: Which binding signal (Interferon gamma (IFNγ)) does the source give for CTGGGCGGTAGAACCATAGTGACCCAGCCGTCTAC (structured_DNA) [PfLDH-apta] here?
A: ~6 fold signal increase

Q: And the binding signal (PfLDH)?
A: ~2 fold signal vs no divalent cations

Q: What about the binding signal (Thrombin) of the same binder?
A: ~8 fold signal increase
